Data: patent US20060034860A1 (CELLVIR, published 2006)

Key:
[1] = target: T1, Casein Kinase 2, beta polypeptide (CSNK2B), prey47239, prey fragments (Human, UniProt P67870 2-215); assay: yeast two-hybrid screen, bait PR_v1 (pB27), Human CEMC7 Random Primed prey library; table of bait-prey interactions
T1 construct: also called hCSNK2B; regulatory beta chain of CK2

[2] = target: T2, Human UBE1 (prey030679), prey fragments (Human, UniProt P22314 2-1058); assay: yeast two-hybrid screen, bait PR_v1 (pB27), CEMC7 oligo dT primed cDNA prey library; table of bait-prey interactions
T2 sequence: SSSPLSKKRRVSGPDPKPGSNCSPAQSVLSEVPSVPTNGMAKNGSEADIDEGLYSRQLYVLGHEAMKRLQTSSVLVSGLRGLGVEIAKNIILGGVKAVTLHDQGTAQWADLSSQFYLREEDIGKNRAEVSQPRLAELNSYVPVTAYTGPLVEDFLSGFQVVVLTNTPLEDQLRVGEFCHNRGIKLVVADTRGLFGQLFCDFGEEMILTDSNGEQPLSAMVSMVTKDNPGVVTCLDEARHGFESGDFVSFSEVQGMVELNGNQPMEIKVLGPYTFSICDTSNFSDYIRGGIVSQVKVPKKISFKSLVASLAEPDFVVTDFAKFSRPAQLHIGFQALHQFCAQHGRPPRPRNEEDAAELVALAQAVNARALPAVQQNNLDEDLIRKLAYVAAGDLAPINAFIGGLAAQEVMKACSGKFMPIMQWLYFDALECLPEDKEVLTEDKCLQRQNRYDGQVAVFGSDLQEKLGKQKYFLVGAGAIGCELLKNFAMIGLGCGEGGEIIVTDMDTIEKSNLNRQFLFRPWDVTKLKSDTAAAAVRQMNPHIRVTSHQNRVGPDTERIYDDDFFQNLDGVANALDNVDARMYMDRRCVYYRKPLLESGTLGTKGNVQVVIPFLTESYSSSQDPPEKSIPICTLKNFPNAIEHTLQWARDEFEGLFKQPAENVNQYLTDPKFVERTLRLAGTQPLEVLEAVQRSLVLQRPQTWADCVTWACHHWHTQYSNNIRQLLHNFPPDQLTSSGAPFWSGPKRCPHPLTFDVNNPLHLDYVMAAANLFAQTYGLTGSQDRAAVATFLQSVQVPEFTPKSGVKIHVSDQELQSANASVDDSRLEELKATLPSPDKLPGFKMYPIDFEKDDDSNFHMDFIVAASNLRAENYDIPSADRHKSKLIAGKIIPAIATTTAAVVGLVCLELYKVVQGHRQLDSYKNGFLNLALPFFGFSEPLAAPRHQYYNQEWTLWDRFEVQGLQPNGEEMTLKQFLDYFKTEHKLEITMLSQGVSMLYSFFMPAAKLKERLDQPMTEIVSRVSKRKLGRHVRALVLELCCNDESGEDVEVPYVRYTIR

[3] = target: T3, BRCA1 assoc. Prot.1 (BAP1), prey17662 / prey145885, prey fragments (Human, UniProt Q92560 1-729); assay: yeast two-hybrid screen, bait NC_v1 (pB6), Human CEMC7 Random Primed prey library; table of bait-prey interactions
T3 construct: also called hBAP1; Ubiquitin Hydrolase
T3 sequence: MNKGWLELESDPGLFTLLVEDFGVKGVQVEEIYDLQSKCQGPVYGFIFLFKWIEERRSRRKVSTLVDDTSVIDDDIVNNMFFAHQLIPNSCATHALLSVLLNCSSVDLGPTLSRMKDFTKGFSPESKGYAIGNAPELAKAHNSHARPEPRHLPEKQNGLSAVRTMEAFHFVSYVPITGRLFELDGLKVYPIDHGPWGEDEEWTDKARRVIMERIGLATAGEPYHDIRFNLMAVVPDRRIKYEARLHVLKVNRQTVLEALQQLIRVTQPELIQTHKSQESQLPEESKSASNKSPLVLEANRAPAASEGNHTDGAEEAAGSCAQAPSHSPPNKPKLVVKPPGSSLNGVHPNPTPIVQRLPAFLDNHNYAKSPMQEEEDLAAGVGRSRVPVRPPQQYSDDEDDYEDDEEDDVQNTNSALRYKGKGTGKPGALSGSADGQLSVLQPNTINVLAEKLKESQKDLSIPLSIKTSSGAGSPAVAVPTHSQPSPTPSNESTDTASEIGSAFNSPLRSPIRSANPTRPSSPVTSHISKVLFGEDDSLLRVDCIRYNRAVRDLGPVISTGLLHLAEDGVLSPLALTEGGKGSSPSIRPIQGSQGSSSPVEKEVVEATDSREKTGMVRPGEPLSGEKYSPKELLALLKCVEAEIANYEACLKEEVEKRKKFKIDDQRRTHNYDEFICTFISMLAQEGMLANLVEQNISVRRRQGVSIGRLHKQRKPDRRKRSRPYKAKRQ

[4] = target: T4, Human AKAP1 (prey026778), A kinase anchor protein 1 (Human, UniProt Q92667 30-903); assay: yeast two-hybrid screen, bait RT_v1, CEMC7 random primed cDNA prey library; table of bait-prey interactions
T4 construct: Prey fragments (vector pP6) in the primary screen
T4 sequence: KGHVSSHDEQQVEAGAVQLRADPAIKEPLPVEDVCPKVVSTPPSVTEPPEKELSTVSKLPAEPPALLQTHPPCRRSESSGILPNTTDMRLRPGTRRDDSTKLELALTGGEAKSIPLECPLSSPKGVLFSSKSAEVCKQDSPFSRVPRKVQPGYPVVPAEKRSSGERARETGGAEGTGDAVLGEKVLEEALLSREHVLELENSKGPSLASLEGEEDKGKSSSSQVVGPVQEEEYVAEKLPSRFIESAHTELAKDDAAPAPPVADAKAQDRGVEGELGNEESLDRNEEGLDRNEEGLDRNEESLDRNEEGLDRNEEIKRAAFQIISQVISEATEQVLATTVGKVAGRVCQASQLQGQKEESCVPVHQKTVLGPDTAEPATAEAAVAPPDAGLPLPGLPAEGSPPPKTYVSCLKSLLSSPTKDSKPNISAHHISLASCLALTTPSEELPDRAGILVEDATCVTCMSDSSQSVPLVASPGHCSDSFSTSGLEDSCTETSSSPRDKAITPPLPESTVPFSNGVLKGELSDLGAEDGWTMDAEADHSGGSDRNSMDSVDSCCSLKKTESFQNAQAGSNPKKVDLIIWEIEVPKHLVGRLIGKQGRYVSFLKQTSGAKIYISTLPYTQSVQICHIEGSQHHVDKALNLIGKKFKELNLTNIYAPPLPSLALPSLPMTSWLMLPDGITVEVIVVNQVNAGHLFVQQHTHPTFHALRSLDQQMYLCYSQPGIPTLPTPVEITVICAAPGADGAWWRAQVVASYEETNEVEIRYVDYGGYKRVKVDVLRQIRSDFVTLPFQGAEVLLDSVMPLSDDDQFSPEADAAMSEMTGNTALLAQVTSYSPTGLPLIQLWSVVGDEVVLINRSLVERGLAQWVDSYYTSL

T1 sequence (P67870 2-215 limits assumed): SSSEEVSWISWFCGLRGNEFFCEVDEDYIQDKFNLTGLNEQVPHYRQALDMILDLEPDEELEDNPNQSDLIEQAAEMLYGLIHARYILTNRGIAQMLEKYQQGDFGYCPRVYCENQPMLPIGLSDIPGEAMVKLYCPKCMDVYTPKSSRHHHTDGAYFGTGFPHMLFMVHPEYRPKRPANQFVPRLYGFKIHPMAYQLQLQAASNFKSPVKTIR

B1: HIV-1 protease, bait PR_v1 (enzyme)
chain: not shown
- binding result [1]: binds
- binding result [2]: binds

B2: HIV-1 Nucleocapsid NCp7, bait NC_v1 (other)
chain: MQRGNFRNQRKTVKCFNCGKEGHIAKNCRAPRKKGCWKCGKEGHQMKDCTERQAN
- binding result [3]: binds

B3: HIV-1 reverse transcriptase p66 subunit, bait RT_v1 (enzyme)
chain: not shown
notes: also called p66 RT; HIV-1 p66 RT
- binding result [4]: binds
